Test results taken from the supplement of paper PMC10567573.

B1: SLC19A2 (parent)
chain: IYPVWTYSYLVLLFPVFLATDYLR
B2: MIA2 (parent)
chain: SVIEPVQESSFRSRKIAVEDENDL

Variants of: B1
Experiment: protein stability index of a GFP-peptide fusion (GPS, HEK-293T) (PSI 1-6); higher = more stable
Settings: c terminus: a fixed tail appended
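Note: lentivirally expressed fusions sorted by FACS into six bins by GFP to DsRed ratio, PSI derived from sequencing read proportions per bin multiplied by bin number.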

Question: For I1F, which protein stability index is on record?
Answer: 2.21

Question: Which protein stability index does the source give for I1S here?
Answer: 2.54

Question: For I1W, which protein stability index is on record?
Answer: 2.38

Question: Which protein stability index does the source give for I1L here?
Answer: 3.49

Question: For I1H, which protein stability index is on record?
Answer: 4.44

Question: Which protein stability index does the source give for I1Y here?
Answer: 1.63

Question: With I1V as the variant, how does the protein stability index read?
Answer: 4.95

Question: For I1T, which protein stability index is on record?
Answer: 3.48

Question: Which protein stability index does the source give for I1G here?
Answer: 2.67

Question: Which protein stability index does the source give for I1M here?
Answer: 2.3

Question: For I1A, which protein stability index is on record?
Answer: 2.12

Question: Which protein stability index does the source give for I1N here?
Answer: 2.98

Question: Which protein stability index does the source give for I1R here?
Answer: 1.87

Question: With I1P as the variant, how does the protein stability index read?
Answer: 3.33

Question: Which protein stability index does the source give for V4E here?
Answer: 3.43

Question: With V4H as the variant, how does the protein stability index read?
Answer: 3.32

Question: Which protein stability index does the source give for V4L here?
Answer: 3.73

Question: Which protein stability index does the source give for V4A here?
Answer: 2.73

Question: With V4K as the variant, how does the protein stability index read?
Answer: 2.96

Question: With V4F as the variant, how does the protein stability index read?
Answer: 3.35

Question: With V4M as the variant, how does the protein stability index read?
Answer: 2.76

Question: With V4C as the variant, how does the protein stability index read?
Answer: 2.33

Question: With V4I as the variant, how does the protein stability index read?
Answer: 3.46

Question: Which protein stability index does the source give for V4G here?
Answer: 3.35

Question: With V4D as the variant, how does the protein stability index read?
Answer: 2.85

Question: With V4Q as the variant, how does the protein stability index read?
Answer: 3.11

Question: With V4N as the variant, how does the protein stability index read?
Answer: 3.44

Question: Which protein stability index does the source give for Y2S here?
Answer: 2.56

Question: For Y2E, which protein stability index is on record?
Answer: 2.56

Question: For Y2A, which protein stability index is on record?
Answer: 3.21

Question: Which protein stability index does the source give for Y2W here?
Answer: 3.59

Question: For Y2G, which protein stability index is on record?
Answer: 1.97

Question: Which protein stability index does the source give for Y2V here?
Answer: 3.19

Question: Which protein stability index does the source give for Y2D here?
Answer: 2.77

Question: Which protein stability index does the source give for Y2L here?
Answer: 2.15

Question: Which protein stability index does the source give for Y2F here?
Answer: 3.09

Question: With Y2T as the variant, how does the protein stability index read?
Answer: 4.06

Question: For Y2P, which protein stability index is on record?
Answer: 2.62

Question: For Y2H, which protein stability index is on record?
Answer: 2.29

Question: Which protein stability index does the source give for Y2M here?
Answer: 3.15

Question: Which protein stability index does the source give for Y2K here?
Answer: 2.44

Question: For Y2I, which protein stability index is on record?
Answer: 4.61

Question: Which protein stability index does the source give for Y2Q here?
Answer: 3.11

Question: With P3N as the variant, how does the protein stability index read?
Answer: 2.57

Question: Which protein stability index does the source give for P3C here?
Answer: 3.34

Question: For P3H, which protein stability index is on record?
Answer: 3.02

Question: Which protein stability index does the source give for P3W here?
Answer: 3.05

Question: For P3G, which protein stability index is on record?
Answer: 3.79

Question: For P3E, which protein stability index is on record?
Answer: 2.5

Question: Which protein stability index does the source give for P3S here?
Answer: 3.26

Question: For P3A, which protein stability index is on record?
Answer: 3.47

Question: Which protein stability index does the source give for P3Y here?
Answer: 2.94

Question: With P3L as the variant, how does the protein stability index read?
Answer: 3.98

Question: For P3K, which protein stability index is on record?
Answer: 2.02

Variants of: B2
Experiment: as above
Settings: c terminus: a fixed tail appended

Question: With R14W as the variant, how does the protein stability index read?
Answer: 4.13

Question: Which protein stability index does the source give for R14A here?
Answer: 5.53

Question: For R14P, which protein stability index is on record?
Answer: 5.4

Question: For R14K, which protein stability index is on record?
Answer: 5.67

Question: With R14N as the variant, how does the protein stability index read?
Answer: 5.75

Question: Which protein stability index does the source give for R14G here?
Answer: 5.55

Question: With R14T as the variant, how does the protein stability index read?
Answer: 5.31

Question: For R14V, which protein stability index is on record?
Answer: 5.51

Question: For R14H, which protein stability index is on record?
Answer: 5.4

Question: Which protein stability index does the source give for R14Y here?
Answer: 4.42

Question: Which protein stability index does the source give for R14Q here?
Answer: 5.67

Question: Which protein stability index does the source give for R14E here?
Answer: 5.32

Question: For R14I, which protein stability index is on record?
Answer: 5.04

Question: For R14F, which protein stability index is on record?
Answer: 4.39

Question: With R14S as the variant, how does the protein stability index read?
Answer: 5.13

Question: For R14L, which protein stability index is on record?
Answer: 4.98

Question: Which protein stability index does the source give for R14C here?
Answer: 5.08

Question: With R14M as the variant, how does the protein stability index read?
Answer: 5.02

Question: Which protein stability index does the source give for R14D here?
Answer: 5.75

Question: For F11Y, which protein stability index is on record?
Answer: 5.26

Question: Which protein stability index does the source give for F11Q here?
Answer: 4.71

Question: With F11W as the variant, how does the protein stability index read?
Answer: 5.44

Question: With F11K as the variant, how does the protein stability index read?
Answer: 5.4

Question: For F11H, which protein stability index is on record?
Answer: 5.37

Question: For F11A, which protein stability index is on record?
Answer: 4.79

Question: With F11G as the variant, how does the protein stability index read?
Answer: 5.28

Question: With F11M as the variant, how does the protein stability index read?
Answer: 5.19

Question: Which protein stability index does the source give for F11S here?
Answer: 5.26

Question: For F11C, which protein stability index is on record?
Answer: 4.9

Question: For F11R, which protein stability index is on record?
Answer: 5.67

Question: With F11L as the variant, how does the protein stability index read?
Answer: 5.46

Question: For F11V, which protein stability index is on record?
Answer: 5.16

Question: With F11D as the variant, how does the protein stability index read?
Answer: 5.92

Question: Which protein stability index does the source give for F11P here?
Answer: 5.08

Question: For F11I, which protein stability index is on record?
Answer: 5.15

Question: With F11N as the variant, how does the protein stability index read?
Answer: 5.62

Question: With F11T as the variant, how does the protein stability index read?
Answer: 5.86

Question: For F11E, which protein stability index is on record?
Answer: 5.84

Question: With D20V as the variant, how does the protein stability index read?
Answer: 4.57

Question: With D20P as the variant, how does the protein stability index read?
Answer: 3.94

Question: For D20W, which protein stability index is on record?
Answer: 4.1

Question: With D20E as the variant, how does the protein stability index read?
Answer: 5.72

Question: For D20H, which protein stability index is on record?
Answer: 4.35

Question: Which protein stability index does the source give for D20K here?
Answer: 5.13

Question: With D20G as the variant, how does the protein stability index read?
Answer: 5.21

Question: With D20T as the variant, how does the protein stability index read?
Answer: 5.38

Question: With D20F as the variant, how does the protein stability index read?
Answer: 3.83

Question: Which protein stability index does the source give for D20A here?
Answer: 4.63

Question: Which protein stability index does the source give for D20C here?
Answer: 4.89

Question: With D20M as the variant, how does the protein stability index read?
Answer: 4.8

Question: For D20I, which protein stability index is on record?
Answer: 4.64

Question: For D20N, which protein stability index is on record?
Answer: 5.57

Question: Which protein stability index does the source give for D20Y here?
Answer: 4.18

Question: Which protein stability index does the source give for D20R here?
Answer: 4.94

Question: With D20Q as the variant, how does the protein stability index read?
Answer: 5.25

Question: Which protein stability index does the source give for D20L here?
Answer: 4.42

Question: Which protein stability index does the source give for D23Q here?
Answer: 5.83

Question: For D23P, which protein stability index is on record?
Answer: 4.28

Question: With D23C as the variant, how does the protein stability index read?
Answer: 4.39

Question: With D23M as the variant, how does the protein stability index read?
Answer: 4.82

Question: Which protein stability index does the source give for D23I here?
Answer: 4.64

Question: For D23H, which protein stability index is on record?
Answer: 4.95

Question: With D23W as the variant, how does the protein stability index read?
Answer: 3.86

Question: For D23A, which protein stability index is on record?
Answer: 5.26

Question: With D23R as the variant, how does the protein stability index read?
Answer: 5.07

Question: Which protein stability index does the source give for D23T here?
Answer: 4.71

Question: Which protein stability index does the source give for D23N here?
Answer: 5.1

Question: With D23Y as the variant, how does the protein stability index read?
Answer: 4.24

Question: Which protein stability index does the source give for D23E here?
Answer: 5.54

Question: Which protein stability index does the source give for D23K here?
Answer: 4.95

Question: Which protein stability index does the source give for D23V here?
Answer: 5.1

Question: With D23G as the variant, how does the protein stability index read?
Answer: 4.72

Question: Which protein stability index does the source give for D23S here?
Answer: 5.2

Question: Which protein stability index does the source give for D23L here?
Answer: 4.63

Question: Which protein stability index does the source give for D23F here?
Answer: 3.65

Question: Which protein stability index does the source give for S13L here?
Answer: 5.19

Question: For S13M, which protein stability index is on record?
Answer: 4.86

Question: Which protein stability index does the source give for S13K here?
Answer: 5.18

Question: For S13Y, which protein stability index is on record?
Answer: 5.12

Question: For S13Q, which protein stability index is on record?
Answer: 5.03

Question: Which protein stability index does the source give for S13N here?
Answer: 5.61

Question: Which protein stability index does the source give for S13E here?
Answer: 5.3

Question: For S13W, which protein stability index is on record?
Answer: 4.72

Question: For S13V, which protein stability index is on record?
Answer: 5.23

Question: With S13I as the variant, how does the protein stability index read?
Answer: 5.11

Question: With S13D as the variant, how does the protein stability index read?
Answer: 5.05

Question: Which protein stability index does the source give for S13A here?
Answer: 5.65

Question: With S13R as the variant, how does the protein stability index read?
Answer: 5.53

Question: For S13T, which protein stability index is on record?
Answer: 5.66

Question: For S13G, which protein stability index is on record?
Answer: 5.44

Question: Which protein stability index does the source give for S13F here?
Answer: 5.03

Question: For S13P, which protein stability index is on record?
Answer: 5.18

Question: For S13C, which protein stability index is on record?
Answer: 5.05

Question: For S13H, which protein stability index is on record?
Answer: 5.25

Question: With E19W as the variant, how does the protein stability index read?
Answer: 4.15

Question: Which protein stability index does the source give for E19V here?
Answer: 5.03

Question: For E19K, which protein stability index is on record?
Answer: 5.35

Question: For E19F, which protein stability index is on record?
Answer: 4.53

Question: With E19G as the variant, how does the protein stability index read?
Answer: 4.5

Question: For E19Q, which protein stability index is on record?
Answer: 5.33

Question: For E19M, which protein stability index is on record?
Answer: 4.62

Question: For E19S, which protein stability index is on record?
Answer: 5.31

Question: With E19R as the variant, how does the protein stability index read?
Answer: 4.51

Question: With E19Y as the variant, how does the protein stability index read?
Answer: 4.67

Question: For E19A, which protein stability index is on record?
Answer: 5.13

Question: With E19D as the variant, how does the protein stability index read?
Answer: 5.03

Question: With E19I as the variant, how does the protein stability index read?
Answer: 4.25

Question: With E19L as the variant, how does the protein stability index read?
Answer: 4.56

Question: With E19N as the variant, how does the protein stability index read?
Answer: 5.08

Question: For E19H, which protein stability index is on record?
Answer: 4.56

Question: For E19T, which protein stability index is on record?
Answer: 5.02

Question: With E19C as the variant, how does the protein stability index read?
Answer: 4.62

Question: For E19P, which protein stability index is on record?
Answer: 5.32
